Laboratory results taken from patent US20250163186A1 (PHYLAXIS BIOSCIENCE, published 2025).
Changes are numbered by the printed parent chain.

B1: hzB10v8-NNT (Fc fusion)
VHH-Fc: EVQLVQSGGELVQAGGSLRLSCVASGLTFSSYNMGWLRQAPGKEREFVGISGSSSTSTYYADSVKGRFTISRDNSKNTVYLQMNSLKPEDTAVYYCAARRMLSTYWSDRSWDFWGQGTQVTVKPGGPSVFLFPPKPKDTLMISRTPEVTCVVVDVSHEDPEVKFNWYVDGVEVHNAKTKPREEQYNSTYRVVSVLTVLHQDWLNGKEYKCKVSNKALPAPIEKTISKAKGQPREPQVYTLPPSRDELTKNQVNLTCLVKGFYPSDIAVEWESNGQPENNYKTTPPVLDSDGSFFLNSTLTVDKSRWQQGNVFSCSVMHEALHNHYTQKSLSLSPGK
notes: monomeric
B2: hzB10v9-NNT (Fc fusion)
VHH-Fc: B1 VHH-Fc with I50V
notes: monomeric
B3: hzB10v10-NNT (Fc fusion)
VHH-Fc: B1 VHH-Fc with I50M, M101L, V122A
notes: monomeric
B4: hzB10v13-NNT (Fc fusion)
VHH-Fc: B1 VHH-Fc with I50M, D62E, S75A, V122A
notes: monomeric
B5: hzB10v12-NNT (Fc fusion)
VHH-Fc: B1 VHH-Fc with I50M, M101V
notes: monomeric
B6: hzB10v11-NNT (Fc fusion)
VHH-Fc: B1 VHH-Fc with I50M, M101I
notes: monomeric
B7: Anti-IgE sdAb B10 (parental B10 VHH, dimeric VHH-hIgG1-Fc xELL fusion) (Fc fusion)
chain: EVQLVQSGGELVQAGGSLRLSCVASGLTFSSYNMGWLRQAPGKEREFVGMSGSSSTSTYYADSVKGRFTISRDNSKNTVYLQMNSLKPEDTAVYYCAARRMLSTYWSDRSWDFWGQGTQVTVKPDKTHTCPPCPAPGGPSVFLFPPKPKDTLMISRTPEVTCVVVDVSHEDPEVKFNWYVDGVEVHNAKTKPREEQYNSTYRVVSVLTVLHQDWLNGKEYKCKVSNKALPAPIEKTISKAKGQPREPQVYTLPPSRDELTKNQVSLTCLVKGFYPSDIAVEWESNGQPENNYKTTPPVLDSDGSFFLYSKLTVDKSRWQQGNVFSCSVMHEALHNHYTQKSLSLSPGK
B8: hzB10v22-NNT (Fc fusion)
VHH-Fc: B1 VHH-Fc with V5L, Q6E, E10G, L11E, A14P, I50L, K87R, M101L, K123E
notes: monomeric
B9: hzB10v21-NNT (Fc fusion)
VHH-Fc: B1 VHH-Fc with V5L, Q6E, E10G, L11E, A14P, I50L, N84S, M101L, K123E
notes: monomeric
B10: hzB10v14-NNT (Fc fusion)
VHH-Fc: B1 VHH-Fc with V5L, Q6E, E10G, L11E, A14P, I50L, M101L, K123E
notes: monomeric
B11: hzB10v16-NNT (Fc fusion)
VHH-Fc: B1 VHH-Fc with V5L, Q6E, E10G, L11E, A14P, I50L, D62E, M101L, K123E
notes: monomeric
B12: hzB10v17-NNT (Fc fusion)
VHH-Fc: B1 VHH-Fc with V5L, Q6E, E10G, L11E, A14P, I50L, S63A, M101L, K123E
notes: monomeric
B13: hzB10v2-NNT (Fc fusion)
VHH-Fc: B1 VHH-Fc with L37V, G49S, I50M
notes: monomeric
B14: hzB10v3-NNT (Fc fusion)
VHH-Fc: B1 VHH-Fc with L37V, I50M
notes: monomeric
B15: hzB10v18-NNT (Fc fusion)
VHH-Fc: B1 VHH-Fc with V5L, Q6E, E10G, L11E, A14P, I50L, S63T, M101L, K123E
notes: monomeric
B16: hzB10v15-NNT (Fc fusion)
VHH-Fc: B1 VHH-Fc with V5L, Q6E, E10G, L11E, A14P, L37V, G49S, I50L, M101L, K123E
notes: monomeric
B17: hzB10v20-NNT (Fc fusion)
VHH-Fc: B1 VHH-Fc with V5L, Q6E, E10G, L11E, A14P, I50L, V79L, M101L, K123E
notes: monomeric
B18: hzB10v1-NNT (Fc fusion)
VHH-Fc: B1 VHH-Fc with V5L, Q6E, E10G, A14P, I50M
notes: monomeric
B19: hzB10v27-NNT (Fc fusion)
VHH-Fc: EVQLLESGGGEVQPGGSLRLSCVASGLTFSSYNMGWLRQAPGKEREFVGLSGSSSTSTYYAESVKGRFTISRDNSKNTVYLQMNSLRAEDTAVYYCAARRLLSTYWSDRSWDFWGQGTQVTVEPGGPSVFLFPPKPKDTLMISRTPEVTCVVVDVSHEDPEVKFNWYVDGVEVHNAKTKPREEQYNSTYRVVSVLTVLHQDWLNGKEYKCKVSNKALPAPIEKTISKAKGQPREPQVYTLPPSRDELTKNQVNLTCLVKGFYPSDIAVEWESNGQPENNYKTTPPVLDSDGSFFLNSTLTVDKSRWQQGNVFSCSVMHEALHNHYTQKSLSLSPGK
notes: monomeric
B20: hzB10v34-NNT (Fc fusion)
VHH-Fc: B19 VHH-Fc with L37V, G49S
notes: monomeric
B21: hzB10v29-NNT (Fc fusion)
VHH-Fc: B19 VHH-Fc with N84Q
notes: monomeric
B22: hzB10v28-NNT (Fc fusion)
VHH-Fc: B19 VHH-Fc with N84S
notes: monomeric
B23: hzB10v31-NNT (Fc fusion)
VHH-Fc: B19 VHH-Fc with S85T
notes: monomeric
B24: hzB10v32-NNT (Fc fusion)
VHH-Fc: B19 VHH-Fc with L37V
notes: monomeric
B25: hzB10v33-NNT (Fc fusion)
VHH-Fc: B19 VHH-Fc with G49S
notes: monomeric

Target: T1, CH2-4 constant domains of human IgE linked to a transmembrane protein, on 293 cells (human, UniProt P01854-1 104-428)
T1 construct: domain: CH2-4 constant domains; also called human IgE-expressing 293 cells
T1 sequence (P01854 other isoform, or with tags, fused parts or gaps): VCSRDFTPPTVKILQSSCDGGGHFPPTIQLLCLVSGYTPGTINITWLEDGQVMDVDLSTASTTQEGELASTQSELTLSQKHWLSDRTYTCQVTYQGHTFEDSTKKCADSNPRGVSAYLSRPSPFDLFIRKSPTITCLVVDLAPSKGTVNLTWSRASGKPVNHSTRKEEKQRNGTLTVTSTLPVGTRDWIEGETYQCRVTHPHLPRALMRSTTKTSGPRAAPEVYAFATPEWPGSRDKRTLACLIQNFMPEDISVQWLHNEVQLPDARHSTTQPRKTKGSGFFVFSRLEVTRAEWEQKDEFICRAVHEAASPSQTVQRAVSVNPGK
Assay: flow cytometry, 293 cells expressing human IgE CH2-4
Protocol: (§1) First, 25 μg of DNA was added to Opti-MEM Reduced Serum Medium (Gibco) mixed with 75 μL of 40 kDa Polyethylenimine (PEI) for a final concentration of 1 μg DNA and 2.5 μg PEI per mL of culture volume. The plasmid DNA was allowed to pre-complex with PEI for 15 minutes before transferring the mixture to 25 mL of 293 cells in a shake flask at a density of 2×10⁶ cells/mL. […] Next, 50 μL of cells were transferred to wells of a round-bottom 96-well assay plate for a total of 50,000 293 cells per well. In a separate 96-well plate, monomeric VHH-hIgG1-Fc fusion proteins were titrated 1:5 in a 8-point dilution series starting at 1 μM in FACS Buffer with the 8th point containing no antibody. 50 μL from each antibody dilution was added to wells containing 50 μL of FACS Buffer with transfected 293 cells which produced a 2-fold dilution of the antibody concentrations from the dilution series resulting in a 500 nM final, starting concentration of the test article titration. The test articles and 293 cells were incubated together at 4° C. for 30 minutes. Next, the 96-well plates were centrifuged at 400×g for 5 minutes and the FACS buffer containing unbound antibody was decanted. Cells were washed 1× with 150 μL 4° C. FACS Buffer. […] The cells were incubated with the fluorophore conjugated detection antibody at 4° C. for 20 minutes. 293 cells were then centrifuged and washed once as described above. Cell pellets were resuspended in 30 μL FACS Buffer and analyzed on an iQue Screener Plus flow cytometer (Sartorius, IntelliCyt) with a 1 second sip time and 1 second void time. Mean fluorescent intensity was calculated using iQue onboard software gating on GFP+ or citrine+ cells.

Bmax | Kd | Binder
2.75e+06 MFI | 2.74 nM | B1
2.83e+06 MFI | 2.82 nM | B2
2.76e+06 MFI | 1.19 nM | B3
2.82e+06 MFI | 3.49 nM | B4
2.72e+06 MFI | 2.37 nM | B5
3.41e+06 MFI | 15.6 nM | B6
2.25e+06 MFI | 0.893 nM | B7

Target: T1, CH2-4 constant domains of human IgE …
Assay: as above
Remark: another data set of the same source
Protocol: as §1

Bmax | Kd | Binder
2.08e+06 MFI | 2.39 nM | B8
1.72e+06 MFI | 6.4 nM | B9

Target: T1, CH2-4 constant domains of human IgE …
Assay: as above
Remark: another data set of the same source
Protocol: as §1

Bmax | Kd | Binder
1.95e+06 MFI | 2.11 nM | B10
2.23e+06 MFI | 1.89 nM | B11
2.07e+06 MFI | 1.7 nM | B12
2.46e+06 MFI | 1.81 nM | B13
1.69e+06 MFI | 342 nM | B14
1.95e+06 MFI | 5.07 nM | B15
1.89e+06 MFI | 10 nM | B16
2.24e+06 MFI | 6.01 nM | B17
– | 1.37 nM | B18
– | 0.893 nM | B7

Target: T1, CH2-4 constant domains of human IgE …
Assay: as above
Remark: another data set of the same source
Protocol: as §1

Bmax | Kd | Binder
753000 MFI | 1.16 nM | B19
375000 MFI | 0.55 nM | B20
605000 MFI | 2.31 nM | B21
1.12e+08 MFI | 7070 nM | B22
575000 MFI | 0.978 nM | B23
706000 MFI | 1.33 nM | B24
617000 MFI | 1.94 nM | B25
